Laboratory results: the supplement of paper PMC9170038

Tested on: MS2 coat protein
Experiment: apparent KD of MS2 coat protein; designed switch direction (-1 OFF switch, 1 ON switch): -1; higher = weaker reporter binding
Summary of the method: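 Transcription of designed RNA switches on Illumina chips was done by stalled E. coli RNA polymerase. SNAP-549-labelled MS2 coat protein was then titrated in doubling steps from 0.7 or 1.5 nM to 3 µM, with steps of 0.8–1.5 h at the lowest and 10–20 min at the highest concentration. The per-design median over clusters of curve-fitted normalised fluorescence is reported as apparent KD.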

[1] = Eterna round: R95, input ligand: FMN 200 uM
[2] = Eterna round: R95, input ligand: microRNA oligo, concentration not stated
[3] = Eterna round: R95, input ligand: none

| Sequence | apparent KD of MS2 coat protein (input ligand: FMN 200 uM) | apparent KD of MS2 coat protein (input ligand: none) | apparent KD of MS2 coat protein [1] | apparent KD of MS2 coat protein [2] | apparent KD of MS2 coat protein [3] | apparent KD of MS2 coat protein (input ligand: microRNA oligo, concentration not stated) |
| --- | --- | --- | --- | --- | --- | --- |
| GACUUCUGAGGAUAUACAUAGAUUUACAUGAGGAUCACCCAUGUUCCUCUAUGUAUAAAUGUAGAAGGCAGAAGAA [Mat - Exclusion 5 - JL Mod - D64] (Eterna round: R97, puzzle: Exclusion 5) | 66.8 nM | 15.5 nM |  |  |  |  |
| GACUUGUCAGGAUAUCUUACAUAAACAUCGUAGUUACAAUUGGAGAAGGGACAUGAGGAUCACCCAUGUUUGCC [tap-tap-tappy30] (Eterna round: R97, puzzle: Exclusion 4) | 16.8 nM | 17.5 nM |  |  |  |  |
| GACUUGUUAGGAUAUCUUACAUUUGCAUUAUAGCAACUAUUGGAGAAGGGACAUGAGGAUCACCCAUGUUUGGG [tap-tap-tappy17] (Eterna round: R97, puzzle: Exclusion 4) | 504 nM | 479 nM |  |  |  |  |
| GAGAAACAUGAGGAUCACCCAUGUAAGGAUAUGCUGAAAACAACGGAUAAAACGUGCAGCAGAAGGUACAAAGG [Mat - Mod of my Eli Mod D41] (puzzle: Exclusion 1) |  |  | 76.5 nM | 72.1 nM | 72.4 nM |  |
| GAGAAACAUGAGGAUCACCCAUGUCAGGAUAUUCGGAGGAGAGGGAAGAGAGAGAGGAGAAGAAGGGACGAGAG [Exclusion 1 Rhiboswitch & Hairpin Submission (Joejoemyo11)] (puzzle: Exclusion 1) |  |  | 38.7 nM | 26 nM | 55.7 nM |  |
| GAGAAACAUGAGGAUCACCCAUGUGAGGAUAUGAAAAAGAAAAGAAAAGAAAGAAGAAUCAGAAGGCACAAAGU [salish99-ex1_r3_088] (puzzle: Exclusion 1) |  |  | 31.8 nM | 29.7 nM | 32.9 nM |  |
| GAGAAAGCAAACAGGUGAAACAUGAGGAUCACCCAUGUCCUCAUUUGCUCGUCUUAUAAGCUAUGCGAAAGCAUAGC [Mat - Sensor v3 - turn-off var 1 - Eli Mod - D54] (puzzle: Sensor v3, turn-off variant 1) |  |  | 63.5 nM | 642 nM | 58.7 nM |  |
| GAGAACGUAGGAUAUACAUGAGGAUCACCCAUGUGAGGAAGGAGUAGGAAGAGUGGAAGUAGAAGGACGAAGAG [JR_Exclu3_Sub071] (puzzle: Exclusion 3) |  |  | 29.3 nM | 36.3 nM | 43.8 nM |  |
| GAGAAGGUAGGAUAUACGAAAAAAAAGGGUAGAAAAAAAACACAUGAGGAUCACCCAUGUAGAAGGACCAAAAG [salish99_ex2_r3_035] (puzzle: Exclusion 2) |  |  | 68.9 nM | 24.6 nM | 28 nM |  |
| GAGAAGGUAGGAUAUACGAAGAAAAAGGGUAGAAUAAGAACACAUGAGGAUCACCCAUGUAGAAGGACCAAGAG [Mat - Exclusion 2 - Mod of my Tesla design - D18] (puzzle: Exclusion 2) |  |  | 37.1 nM | 18.6 nM | 14.7 nM |  |
| GAGAAGGUAGGAUAUACGAAGAAAGAGGGUAGGAAUAAUACACAUGAGGAUCACCCAUGUAGAAGGACCAAGAG [Mat - Exclusion 2 - Mod of my Tesla design - D46] (puzzle: Exclusion 2) |  |  | 38.7 nM | 21.4 nM | 24.2 nM |  |
| GAGAAGGUAGGAUAUACGAAUAAAAAGGGUAGAAUAAUAACACAUGAGGAUCACCCAUGUAGAAGGACCAAGAG [Mat - Exclusion 2 - Mod of my Tesla design - D20] (puzzle: Exclusion 2) |  |  | 45 nM | 25.1 nM | 26.5 nM |  |
| GAGAAGGUAGGAUAUACGAAUAAAGAGGGUAGGAAUAAGACACAUGAGGAUCACCCAUGUAGAAGGACCAAGAG [Mat - Exclusion 2 - Mod of my Tesla design - D50] (puzzle: Exclusion 2) |  |  | 37.1 nM | 20.3 nM | 21.4 nM |  |
| GAGACUGGAGGAUAUACGAACUGGUGUAUCUGGAAGGAUCGACUUGAGGAUCACCCAAGUAGAAGGCUAGUGAA [Esgeti] (Eterna round: R97, puzzle: Exclusion 2) | 395 nM | 40.5 nM |  |  |  |  |
| GAGAGAAUCUAGGAUAUGUCAAGAGAAGGAGAGAUAGAAGGAGAGACAUGAGGAUCACCCAUGUCUUCGUGUAG [Default title] (Eterna round: R97, puzzle: Exclusion 6) | 19.4 nM | 17.8 nM |  |  |  |  |
| GAGAGGUCAGGAUAUACGGAGAGAGGGAGUAGGUGAGGGUAACAUGAGGAUCACCCAUGUAGAAGGGACUAAGG [JR_Exclu2_Sub076] (puzzle: Exclusion 2) |  |  | 26.4 nM | 27.4 nM | 39.9 nM |  |
| GAGCAGCGAGGAUAUACAGACGGGUCCAGUACGUGUCUUGGACUUGAGGAUCACCCAAGUAGAAGGCGUCUCAG [salish99_ex2_r4_608] (Eterna round: R97, puzzle: Exclusion 2) | 86.8 nM | 44.3 nM |  |  |  |  |
| GAGCCGCGAGGAUAUACAGACGAGUCCAUUACGUGUCUCGGACUUGAGGAUCACCCAAGUAGAAGGCGUCUCAG [salish99_ex2_r4_629] (Eterna round: R97, puzzle: Exclusion 2) | 34.3 nM | 34.2 nM |  |  |  |  |
| GAGCUAUGAGGAUAUGCAUAUAUACGGAUUCGUGUAGUACUACAUGAGGAUCACCCAUGUAGAAGGCGUGGCAG [Mat - Exclusion 2 - Mod of JL - D77] (puzzle: Exclusion 2) |  |  |  | 12.1 nM |  |  |
| GAGCUAUGAGGAUAUGCAUAUAUACGGUUUCGUGUGGUACUACAUGAGGAUCACCCAUGUAGAAGGCGUGGCAG [Mat - Exclusion 2 - Mod of JL - D78] (puzzle: Exclusion 2) |  |  |  | 16.7 nM |  |  |
| GAGCUAUGAGGAUAUGCAUAUAUGCGGUUUCGUGUGGUACUACAUGAGGAUCACCCAUGUAGAAGGCGUGGCUG [JL-ex2-2.06 mat747 mod] (puzzle: Exclusion 2) |  |  |  | 14 nM |  |  |
| GAGCUGAACUCAGGAUAUUGCGAGUCUUGGGUGACAGCUCUGACAUGAGGAUCACCCAUGUACUCCGAGAAGGGAGGCCGGUAA [Zainve] (Eterna round: R96, puzzle: Exclusion NG 2) | 125 nM | 185 nM |  |  |  | 113 nM |
| GAGGAACAUGAGGAUCACCCAUGUAAGGAUAUGCAUAGCGAGGUAGUAGAAGGUGAAGGCAGAAGGUACACGGA [JR_Exclu1_Sub076] (puzzle: Exclusion 1) |  |  | 31.3 nM | 34.2 nM | 43.8 nM |  |
| GAGGAACAUGAGGAUCACCCAUGUAAGGAUAUGCGAGACUAAAGCGCGCAGGCUAAGAGCAGAAGGUGCAAGGA [Excls1-IIa] (puzzle: Exclusion 1) |  |  | 36 nM | 28.7 nM | 32.8 nM |  |
| GAGGAGACAGGAUAUACAUGAGGAUCACCCAUGUGAGGAGGAGGAGAGAGGAGAAGGAGUAGAAGGGUCAGAGA [JR_Exclu3_Sub024] (puzzle: Exclusion 3) |  |  | 45.1 nM | 33.7 nM | 73.8 nM |  |
